{"source": "patent US20030108924A1", "target": "KCNQ1 cardiac potassium channel (KvLQT1), full-length (UniProt P51787)", "experiment": "cell-based or functional assay"}
{"substance": "KCNE1-D85N (cardiac potassium channel minK subunit polypeptide with asparagine at amino acid 85)", "values": [{"measurement": "increase of current after the 10th pulse of a depolarizing pulse train", "value": 1.9, "unit": "fold"}, {"measurement": "time constant for activation at +40 mV (first time constant)", "value": 368, "unit": "ms"}, {"measurement": "time constant for activation at +40 mV (second time constant)", "value": 2150, "unit": "ms"}, {"measurement": "time constant of deactivation (tail currents at -50 mV after activation at +60 mV)", "value": 295, "unit": "ms"}, {"measurement": "voltage-dependence of activation, V1/2", "value": 20.6, "unit": "mV"}]}
